This note sets out measurements from paper PMC10508222, “Elucidation of the stereocontrol mechanisms of the chemical and biosynthetic intramolecular Diels–Alder cycloaddition for the formation of bioactive decalins” (RSC Advances, 2023).

Test in all cases: purified protein, by the assay type
What all share (conditions): pH 7.5; 25.0 °C

Data set [1] deals with C/C=C/C=C/C=C/C[C@H](C)CC/C=C(\C)C(O)=C1C(=O)C(CO)N(C)C1=O.
Data set [2] concerns C/C=C/C=C/C=C/C[C@@H](C)CC/C=C(\C)C(O)=C1C(=O)C(CO)N(C)C1=O.
Substrate in data set [3]: C/C=C/C=C/C=C/C[C@@H](C)CC/C=C(\C)C(O)=C1C(=O)C(CO)N(C)C1=O
This is another data set of the same source.

The Km is the concentration of substrate that gives half-maximal velocity. Broadly, the kcat is the number of substrate molecules converted per active site and unit of time at saturation. For orientation: kcat/Km means the turnover number divided by the Michaelis constant. Turning to Fsa2 (Fusarium sp. FN080326), in data set [1], the Michaelis constant (Km) was 18.07 ± 4.21 µM, the kcat stood at 84.2 ± 6.58 s⁻¹ and the kcat/Km came to 4.67e+06 M⁻¹ s⁻¹. In data set [2], the Km turned out to be 25.07 ± 2.98 µM, the kcat was 1.01 ± 0.048 s⁻¹ and the kcat/Km was 40200 M⁻¹ s⁻¹.

B1: Phm7 (Pyrenochaetopsis sp.) (protein)
chain: MSEPTSSSSLDITSNCIIETPLQPSDFLPKSANLFPKFPERISVDSWELWEFDTFDTNGSVAFGCSLYRDARGVEQGGFHAEVNALWPDGTHWGETLYFAVSEVVENSDGTTGGKWLSKDGGSITFHIASDYTAAALDFNVPGKVSGTMELRNHANVSPTSNLPASDAEAQLCPGVYYTFPMGPVATSVTATFSSVGANGESRELFISSGYGGMVRGWSARPWPTFMNDAYYVVAQVGPYMLQILRTLGSVFVQHKPFAVARLYLDGSLVSAANTVVGDELTAHADDVKGDAVRLTKVQPDEKSQGLSGKFRDGNVGYVLEFAKKDSEHGWTFQISHKRAVWSEPTSAPGPDGTGKSGWIEAISGGAKGENYEGHGFGGQLQIPVP
B1: in data set [3], the Km is 38.21 ± 8.23 µM, the kcat was 1.98 s⁻¹ and the kcat/Km amounted to 51800 M⁻¹ s⁻¹.
